Assay results: PMC6792017 (The EMBO Journal, 2019)

Biological target: T1, HA-tagged caspase-1 p10 plus p20 C285S active-site mutant (human, UniProt P29466 120-297; P29466 317-404, C285S)
T1 sequence (looked up) 1: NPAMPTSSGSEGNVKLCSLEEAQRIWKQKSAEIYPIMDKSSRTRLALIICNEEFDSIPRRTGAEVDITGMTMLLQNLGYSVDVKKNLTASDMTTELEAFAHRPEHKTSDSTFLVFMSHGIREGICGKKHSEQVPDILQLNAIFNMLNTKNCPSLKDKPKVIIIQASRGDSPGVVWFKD
T1 sequence (looked up) 2: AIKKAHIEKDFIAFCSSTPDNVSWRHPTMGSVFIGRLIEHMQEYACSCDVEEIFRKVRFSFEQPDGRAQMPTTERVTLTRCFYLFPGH
Test: non-reducing SDS-PAGE with Western blot

B1: active recombinant human PRDX4 (non-reduced) (enzyme, UniProt Q13162 38-271, looked up)
chain: WETEERPRTREEECHFYAGGQVYPGEASRVSVADHSLHLSKAKISKPAPYWEGTAVIDGEFKELKLTDYRGKYLVFFFYPLDFTFVCPTEIIAFGDRLEEFRSINTEVVACSVDSQFTHLAWINTPRRQGGLGPIRIPLLSDLTHQISKDYGVYLEDSGHTLRGLFIIDDKGILRQITLNDLPVGRSVDETLRLVQAFQYTDKHGEVCPAGWKPGSETIIPDPAGKLKYFDKLN
binding result: binds
